From the supplement of paper PMC5998384

Key:
HeLa Kyoto [1] = test: solubility in G1/S (NP-40 vs SDS abundance) (log2 ratio); higher = more soluble; settings: cell cycle stage: G1/S
HeLa Kyoto [2] = test: melting temperature (median over replicates), in situ; higher = more thermally stable
HeLa Kyoto [3] = test: solubility change mitosis vs G1/S (difference of NP-40 vs SDS log2 ratios) (log2 ratio difference); higher = more soluble in mitosis
HeLa Kyoto [4] = test: thermal stability score vs G1/S (z-score of summed log2 fold changes over temperatures); higher = more thermally stable than in G1/S
[5] = cell cycle stage: early G1 (4.5 h after nocodazole release)
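Throughout, for melting temperature (median over replicates), in situ: HeLa Kyoto cells synchronized by double thymidine or nocodazole block, proteins quantified by TMT10plex mass spectrometry, three independent biological replicates.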
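Throughout, for solubility change mitosis vs G1/S (difference of NP-40 vs SDS log2 ratios): synchronized HeLa Kyoto cells (double thymidine block for G1/S, nocodazole release for mitosis), protein amounts in NP-40 versus SDS lysates quantified by mass spectrometry, three biological replicates.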
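Throughout, for solubility in G1/S (NP-40 vs SDS abundance): HeLa Kyoto cells arrested at G1/S by double thymidine block, proteins quantified by TMT10plex mass spectrometry in mild NP-40 versus SDS extracts, three biological replicates.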
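Throughout, for thermal stability score vs G1/S (z-score of summed log2 fold changes over temperatures): synchronized HeLa Kyoto cells, proteins quantified by TMT10plex mass spectrometry, three biological replicates, mitosis taken 0.5 h after nocodazole release, G1/S directly after double thymidine block.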

| Substance | solubility in G1/S (log2) (HeLa Kyoto [1]) | melting temperature (HeLa Kyoto [2]; cell cycle stage: G1/S) | solubility change mitosis (log2) (HeLa Kyoto [3]) | thermal stability score (HeLa Kyoto [4]; [5]) | thermal stability score (HeLa Kyoto [4]; cell cycle stage: mitosis) | melting temperature (HeLa Kyoto [2]; cell cycle stage: mitosis) |
| --- | --- | --- | --- | --- | --- | --- |
| MGNAGSMDSQQTDFRAHNVPLKLPMPEPGELEERFAIVLNAMNLPPDKARLLRQYDNEKKWELICDQERFQVKNPPHTYIQKLKGYLDPAVTRKKFRRRVQESTQVLRELEISLRTNHIGWVREFLNEENKGLDVLVEYLSFAQYAVTFDFESVESTVESSVDKSKPWSRSIEDLHRGSNLPSPVGNSVSRSGRHSALRYNTLPSRRTLKNSRLVSKKDDVHVCIMCLRAIMNYQYGFNMVMSHPHAVNEIALSLNNKNPRTKALVLELLAAVCLVRGGHEIILSAFDNFKEVCGEKQRFEKLMEHFRNEDNNIDFMVASMQFINIVVHSVEDMNFRVHLQYEFTKLGLDEYLDKLKHTESDKLQVQIQAYLDNVFDVGALLEDAETKNAALERVEELEENISHLSEKLQDTENEAMSKIVELEKQLMQRNKELDVVREIYKDANTQVHTLRKMVKEKEEAIQRQSTLEKKIHELEKQGTIKIQKKGDGDIAILPVVASGTLSMGSEVVAGNSVGPTMGAASSGPLPPPPPPLPPSSDTPETVQNGPVTPPMPPPPPPPPPPPPPPPPPPPPPLPGPAAETVPAPPLAPPLPSAPPLPGTSSPTVVFNSGLAAVKIKKPIKTKFRMPVFNWVALKPNQINGTVFNEIDDERILEDLNVDEFEEIFKTKAQGPAIDLSSSKQKIPQKGSNKVTLLEANRAKNLAITLRKAGKTADEICKAIHVFDLKTLPVDFVECLMRFLPTENEVKVLRLYERERKPLENLSDEDRFMMQFSKIERLMQKMTIMAFIGNFAESIQMLTPQLHAIIAASVSIKSSQKLKKILEIILALGNYMNSSKRGAVYGFKLQSLDLLLDTKSTDRKQTLLHYISNVVKEKYHQVSLFYNELHYVEKAAAVSLENVLLDVKELQRGMDLTKREYTMHDHNTLLKEFILNNEGKLKKLQDDAKIAQDAFDDVVKYFGENPKTTPPSVFFPVFVRFVKAYKQAEEENELRKKQEQALMEKLLEQEALMEQQDPKSPSHKSKRQQQELIAELRRRQVKDNRHVYEGKDGAIEDIITVLKTVPFTARTAKRGSRFFCEPVLTEEYHY [FMNL2] | -0.0432 | 50.8 °C | -0.0897 | 0.436 | 0.612 | – |
| MAHSKTRTNDGKITYPPGVKEISDKISKEEMVRRLKMVVKTFMDMDQDSEEEKELYLNLALHLASDFFLKHPDKDVRLLVACCLADIFRIYAPEAPYTSPDKLKDIFMFITRQLKGLEDTKSPQFNRYFYLLENIAWVKSYNICFELEDSNEIFTQLYRTLFSVINNGHNQKVHMHMVDLMSSIICEGDTVSQELLDTVLVNLVPAHKNLNKQAYDLAKALLKRTAQAIEPYITNFFNQVLMLGKTSISDLSEHVFDLILELYNIDSHLLLSVLPQLEFKLKSNDNEERLQVVKLLAKMFGAKDSELASQNKPLWQCYLGRFNDIHVPIRLECVKFASHCLMNHPDLAKDLTEYLKVRSHDPEEAIRHDVIVSIVTAAKKDILLVNDHLLNFVRERTLDKRWRVRKEAMMGLAQIYKKYALQSAAGKDAAKQIAWIKDKLLHIYYQNSIDDRLLVERIFAQYMVPHNLETTERMKCLYYLYATLDLNAVKALNEMWKCQNLLRHQVKDLLDLIKQPKTDASVKAIFSKVMVITRNLPDPGKAQDFMKKFTQVLEDDEKIRKQLEVLVSPTCSCKQAEGCVREITKKLGNPKQPTNPFLEMIKFLLERIAPVHIDTESISALIKQVNKSIDGTADDEDEGVPTDQAIRAGLELLKVLSFTHPISFHSAETFESLLACLKMDDEKVAEAALQIFKNTGSKIEEDFPHIRSALLPVLHHKSKKGPPRQAKYAIHCIHAIFSSKETQFAQIFEPLHKSLDPSNLEHLITPLVTIGHIALLAPDQFAAPLKSLVATFIVKDLLMNDRLPGKKTTKLWVPDEEVSPETMVKIQAIKMMVRWLLGMKNNHSKSGTSTLRLLTTILHSDGDLTEQGKISKPDMSRLRLAAGSAIVKLAQEPCYHEIITLEQYQLCALAINDECYQVRQVFAQKLHKGLSRLRLPLEYMAICALCAKDPVKERRAHARQCLVKNINVRREYLKQHAAVSEKLLSLLPEYVVPYTIHLLAHDPDYVKVQDIEQLKDVKECLWFVLEILMAKNENNSHAFIRKMVENIKQTKDAQGPDDAKMNEKLYTVCDVAMNIIMSKSTTYSLESPKDPVLPARFFTQPDKNFSNTKNYLPPEMKSFFTPGKPKTTNVLGAVNKPLSSAGKQSQTKSSRMETVSNASSSSNPSSPGRIKGRLDSSEMDHSENEDYTMSSPLPGKKSDKRDDSDLVRSELEKPRGRKKTPVTEQEEKLGMDDLTKLVQEQKPKGSQRSRKRGHTASESDEQQWPEEKRLKEDILENEDEQNSPPKKGKRGRPPKPLGGGTPKEEPTMKTSKKGSKKKSGPPAPEEEEEEERQSGNTEQKSKSKQHRVSRRAQQRAESPESSAIESTQSTPQKGRGRPSKTPSPSQPKKNVRVGRSKQAATKENDSSEEVDVFQGSSPVDDIPQEETEEEEVSTVNVRRRSAKRERR [PDS5B] | -0.302 | 49.2 °C | 0.216 | -0.564 | 0.534 | 49.4 °C |
| MVQLRPRASRAPASAEAMVDEGQLASEEEEAEHGLLLGQPSSGAAAEPLEEDEEGDDEFDDEAPEELTFASAQAEAREEERRVRETVRRDKTLLKEKRKRREELFIEQKKRKLLPDTILEKLTTASQTNIKKSPGKVKEVNLQKKNEDCEKGNDSKKVKVQKVQSVSQNKSYLAVRLKDQDLRDSRQQAAQAFIHNSLYGPGTNRTTVNKFLSLANKRLPVKRAAVQFLNNAWGIQKKQNAKRFKRRWMVRKMKTKK [NOL7] | -1.02 | 56.9 °C | 0.763 | -0.722 | -4.23 | 54 °C |
| MVIRVYIASSSGSTAIKKKQQDVLGFLEANKIGFEEKDIAANEENRKWMRENVPENSRPATGYPLPPQIFNESQYRGDYDAFFEARENNAVYAFLGLTAPPGSKEAEVQAKQQA [SH3BGRL] | 0.375 | 53.2 °C | -0.0943 | -0.605 | -2.76 | 53 °C |
| MYO9B | -0.141 | 50.4 °C | 0.00466 | -0.189 | -0.197 | 49.6 °C |
| MARSVRVLVDMDGVLADFEAGLLRGFRRRFPEEPHVPLEQRRGFLAREQYRALRPDLADKVASVYEAPGFFLDLEPIPGALDAVREMNDLPDTQVFICTSPLLKYHHCVGEKYRWVEQHLGPQFVERIILTRDKTVVLGDLLIDDKDTVRGQEETPSWEHILFTCCHNRHLVLPPTRRRLLSWSDNWREILDSKRGAAQRE [NT5C] | 0.0484 | 55.9 °C | -0.172 | -0.241 | -1.24 | 57 °C |
| MKPLVVFVLGGPGAGKGTQCARIVEKYGYTHLSAGELLRDERKNPDSQYGELIEKYIKEGKIVPVEITISLLKREMDQTMAANAQKNKFLIDGFPRNQDNLQGWNKTMDGKADVSFVLFFDCNNEICIERCLERGKSSGRSDDNRESLEKRIQTYLQSTKPIIDLYEEMGKVKKIDASKSVDEVFDEVVQIFDKEG [CMPK1] | 0.272 | 51.1 °C | 0.065 | 1.52 | 0.905 | 52.2 °C |
| MGETMSKRLKLHLGGEAEMEERAFVNPFPDYEAAAGALLASGAAEETGCVRPPATTDEPGLPFHQDGKIIHNFIRRIQTKIKDLLQQMEEGLKTADPHDCSAYTGWTGIALLYLQLYRVTCDQTYLLRSLDYVKRTLRNLNGRRVTFLCGDAGPLAVGAVIYHKLRSDCESQECVTKLLQLQRSVVCQESDLPDELLYGRAGYLYALLYLNTEIGPGTVCESAIKEVVNAIIESGKTLSREERKTERCPLLYQWHRKQYVGAAHGMAGIYYMLMQPAAKVDQETLTEMVKPSIDYVRHKKFRSGNYPSSLSNETDRLVHWCHGAPGVIHMLMQAYKVFKEEKYLKEAMECSDVIWQRGLLRKGYGICHGTAGNGYSFLSLYRLTQDKKYLYRACKFAEWCLDYGAHGCRIPDRPYSLFEGMAGAIHFLSDVLGPETSRFPAFELDSSKRD [LANCL2] | -0.0171 | 57.7 °C | -0.119 | -0.346 | -0.592 | 55.4 °C |
| MASRCWRWWGWSAWPRTRLPPAGSTPSFCHHFSTQEKTPQICVVGSGPAGFYTAQHLLKHPQAHVDIYEKQPVPFGLVRFGVAPDHPEVKNVINTFTQTAHSGRCAFWGNVEVGRDVTVPELREAYHAVVLSYGAEDHRALEIPGEELPGVCSARAFVGWYNGLPENQELEPDLSCDTAVILGQGNVALDVARILLTPPEHLERTDITKAALGVLRQSRVKTVWLVGRRGPLQVAFTIKELREMIQLPGARPILDPVDFLGLQDKIKEVPRPRKRLTELLLRTATEKPGPAEAARQASASRAWGLRFFRSPQQVLPSPDGRRAAGVRLAVTRLEGVDEATRAVPTGDMEDLPCGLVLSSIGYKSRPVDPSVPFDSKLGVIPNVEGRVMDVPGLYCSGWVKRGPTGVIATTMTDSFLTGQMLLQDLKAGLLPSGPRPGYAAIQALLSSRGVRPVSFSDWEKLDAEEVARGQGTGKPREKLVDPQEMLRLLGH [FDXR] | 0.349 | 51.7 °C | -0.0461 | 0.0282 | 0.706 | 51.8 °C |
| MHPAGLAAAAAGTPRLRKWPSKRRIPVSQPGMADPHQLFDDTSSAQSRGYGAQRAPGGLSYPAASPTPHAAFLADPVSNMAMAYGSSLAAQGKELVDKNIDRFIPITKLKYYFAVDTMYVGRKLGLLFFPYLHQDWEVQYQQDTPVAPRFDVNAPDLYIPAMAFITYVLVAGLALGTQDRFSPDLLGLQASSALAWLTLEVLAILLSLYLVTVNTDLTTIDLVAFLGYKYVGMIGGVLMGLLFGKIGYYLVLGWCCVAIFVFMIRTLRLKILADAAAEGVPVRGARNQLRMYLTMAVAAAQPMLMYWLTFHLVR [YIF1B] | 0.0319 | 53.5 °C | -0.373 | -0.959 | -1.51 | 54.8 °C |
| MASPGCLLCVLGLLLCGAASLELSRPHGDTAKKPIIGILMQKCRNKVMKNYGRYYIAASYVKYLESAGARVVPVRLDLTEKDYEILFKSINGILFPGGSVDLRRSDYAKVAKIFYNLSIQSFDDGDYFPVWGTCLGFEELSLLISGECLLTATDTVDVAMPLNFTGGQLHSRMFQNFPTELLLSLAVEPLTANFHKWSLSVKNFTMNEKLKKFFNVLTTNTDGKIEFISTMEGYKYPVYGVQWHPEKAPYEWKNLDGISHAPNAVKTAFYLAEFFVNEARKNNHHFKSESEEEKALIYQFSPIYTGNISSFQQCYIFD [GGH] | 0.326 | 60.5 °C | -0.0381 | 0.878 | -0.77 | 60 °C |
| MNKPITPSTYVRCLNVGLIRKLSDFIDPQEGWKKLAVAIKKPSGDDRYNQFHIRRFEALLQTGKSPTSELLFDWGTTNCTVGDLVDLLIQNEFFAPASLLLPDAVPKTANTLPSKEAITVQQKQMPFCDKDRTLMTPVQNLEQSYMPPDSSSPENKSLEVSDTRFHSFSFYELKNVTNNFDERPISVGGNKMGEGGFGVVYKGYVNNTTVAVKKLAAMVDITTEELKQQFDQEIKVMAKCQHENLVELLGFSSDGDDLCLVYVYMPNGSLLDRLSCLDGTPPLSWHMRCKIAQGAANGINFLHENHHIHRDIKSANILLDEAFTAKISDFGLARASEKFAQTVMTSRIVGTTAYMAPEALRGEITPKSDIYSFGVVLLEIITGLPAVDEHREPQLLLDIKEEIEDEEKTIEDYIDKKMNDADSTSVEAMYSVASQCLHEKKNKRPDIKKVQQLLQEMTAS [IRAK4] | 0.372 | 50.6 °C | -0.193 | 0.383 | 1.05 | 49.9 °C |
